The target of the assay is StnCBP-HA-NLuc. Kind of assay: SLC assay (split-luciferase complementation in leaves). Conditions: luminescence intensity/50 mm2 leaf area; n = 3; parent: est. 3500; read off a plot.

For the substance CLuc-GFP-HC-Pro^O V346I, the response turned out to be 3300.

Values taken from article PMC9531334.
